Reference: patent publication US20250297232A1, “BACTERIAL MYELOPEROXIDASE-CATALASE AND APPLICATIONS THEREOF” (priority 2022, published 2025)

Legend:
Assay type in all cases: biochemical
[1] = Catalase activity (absorbance decay at 240 nm, stopped-flow); details: for kss: catalase, 300 nM enzyme, pH 7.5, 500 μM H2O2; for catalase activity, in words: 2 μM wt RbMPO, 37° C.
Experimental: Catalase activity was measured using the stopped-flow set-up, which was configured to measure absorbance decay at 240 nm and at 37° C.

[2] = Pre-steady state: return of wt RbMPO to its native state, I^− range; details: from pre-steady state return to native state with I^−, SCN^−, Br^−, Cl^−
Experimental: Kinetic parameters under pre-steady-state condition were performed with a Biologic SFM400 stopped-flow at 412 nm, 37° C. and with 50 mM sodium phosphate buffer at pH7.5. […] An exponential linear fit was applied to each kinetic using the following formula: […]
The return of the enzyme to its native state was studied by the impact of increasing concentrations of (pseudo)-halides substrates on compound I (FIG. 9B). […] It is the time difference (s) between the two characteristic steps that allowed the calculation of the values of the Vreturn(μM^−1.s^−1) values: […]

[3] = Peroxidase activity with ABTS; details: ABTS range; 0.5 nM wt RbMPO, 79 μM H2O2, pH5.5, 37° C.
Experimental: The plate reader was configured to run a 10 min kinetics at 430 nm with the following ABTS concentration range: 0, 0.1, 0.2, 0.5, 1, 2, 5, 10, 15, 20, 30 and 40 mM.

B1: wt RbMPO: novel bacterial heme peroxidase (myeloperoxidase-catalase) of about 78 KDa from Rhodopirellula baltica, SEQ ID NO: 1, produced recombinantly in E. coli (protein, listed as Rhodopirellula baltica)
chain: MLFWSKRTRKHPGRKRRRLRSEQLESRQLLAADFGGYRHNIYDAEDVNDDGRVSAIDALLVINAMTSETSRDENVFTDVNGDGRRSALDALRVINRIERGDVFPIDTSGDEDLNTLLPEMPSEVRSIDGSGNNPNDHLWGSVGQRLIRMAPAAYGDGISTLAGANRPSAREVSNVLSAMNTSQVLNDRGLSAFVYVWGQFIDHDLGLTESDEHGEAIDISVPEGDLWFDPMGSGEAVIPMTRTPIADGTGTSVGNPAQQFNQITAFIDGSMVYGSDAATAERLRTFAGGRLAISDNGLLPMDESGMVIAGDVRASENVGLTAIQTLFVREHNRLADEIFAADPEATDEEIYQRARLVVASLIQSITYNEFLPALLGQRAMDSYRGYDASVNPGIANEFSTAAFRLGHSTLRDEVGFMSNDGRESKDEMELKDAFFHASMLEETGIDSLLKFDASVQAQEIDLAVVDSLRNFLFGPPGAGGLDLVAMNIQRGRDHGLSDYNTTRQAYGLDRVETFDQITGDVELQQKLASLYGTVDNIDLWVGLMAEDHQHDASVGELTGLIIADQFQRTRDGDRFFYKNVLTDSEVESIERSTLADLIERNTSVDGLQENVFFMQVELRGRVILASSIPPNTMPSEVREEEIRGVSGMAIELIDASGKLVDSTVSDQHGNYRFRALSETGDYQVRLSESGEAMDVLVAHGAERIRGLDFIVLA
In the case of B1, the catalase activity kept ([1]; about 50° C. to about 60° C.) is reported as “more than 80%”, the catalase activity kept ([1]; between 20° C. and 40° C.) is reported as “more than 90%” and the kss ([1]; 10° C.) is reported as 2.04 ± 0.01 s⁻¹. It also gave a kss ([1]; 20° C.) of 2.55 ± 0.02 s⁻¹, a kss ([1]; 30° C.) of 2.75 ± 0.01 s⁻¹ and a kss ([1]; 37°) of 2.78 ± 0.01 s⁻¹. The kss ([1]; 40° C.) was 2.64 ± 0.01 s⁻¹, the kss ([1]; 50° C.) was 2.43 ± 0.01 s⁻¹ and the kss ([1]; 60° C.) was 2.39 ± 0.01 s⁻¹. For the same molecule, the “catalase activity, in words” value ([1]; pH4, 5, 8 and 9) was “no detectable catalase activity”, the “catalase activity, in words” value ([1]; pH6 and pH10) was “negligible” and the substrate specificity [2] was “I^−>SCN^−>Br^− Cl^−”. For the same molecule, the k2 [3] was 10620 M⁻¹ s⁻¹.
